Laboratory results as given in article PMC6531784, “Discovering metabolic disease gene interactions by correlated effects on cellular morphology” (Molecular Metabolism, 2019).
Where “and” joins values, the source holds several entries; their conditions need not be identical. Equal values may be shown once. Blank lines part the entries; values can stand above or below the binder they belong to.

Legend:
seipin-Myc = biological target: T1, seipin-Myc (UniProt Q96G97 1-398); test: atomic force microscopy; proteins co-expressed in tsA 201 cells, isolated by anti-Myc immunoaffinity chromatography, imaged in tapping mode in air; particle volumes from heights and radii; settings: partners not purified
T1 construct: seipin (product of BSCL2) in the pcDNA3.1 MycHis vector; also called seipin dodecamers; not shown: Myc, C-terminal, kept; copies: 12
T1 sequence (looked up): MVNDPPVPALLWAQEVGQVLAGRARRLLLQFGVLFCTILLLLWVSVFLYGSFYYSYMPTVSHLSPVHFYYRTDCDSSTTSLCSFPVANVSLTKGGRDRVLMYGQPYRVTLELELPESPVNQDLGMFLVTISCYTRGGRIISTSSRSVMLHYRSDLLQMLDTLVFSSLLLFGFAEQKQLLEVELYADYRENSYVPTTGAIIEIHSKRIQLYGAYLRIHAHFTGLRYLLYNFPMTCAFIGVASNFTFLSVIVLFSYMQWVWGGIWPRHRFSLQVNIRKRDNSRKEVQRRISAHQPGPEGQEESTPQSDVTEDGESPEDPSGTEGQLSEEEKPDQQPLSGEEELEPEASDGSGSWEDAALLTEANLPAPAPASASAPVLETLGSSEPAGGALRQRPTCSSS

seipin-Myc, Q96G97 = biological target: T2, seipin-Myc, Q96G97; test: as above; settings: remark: other sources report otherwise
T2 chain: T1 sequence (looked up)

stoichiometry N (seipin-Myc): 1 perilipin per seipin dodecamer and 2 perilipin per seipin dodecamer
B1: FLAG-perilipin (in tsA 201 cells) (natural protein, UniProt O60240 1-522, looked up)
chain: MAVNKGLTLLDGDLPEQENVLQRVLQLPVVSGTCECFQKTYTSTKEAHPLVASVCNAYEKGVQSASSLAAWSMEPVVRRLSTQFTAANELACRGLDHLEEKIPALQYPPEKIASELKDTISTRLRSARNSISVPIASTSDKVLGAALAGCELAWGVARDTAEFAANTRAGRLASGGADLALGSIEKVVEYLLPPDKEESAPAPGHQQAQKSPKAKPSLLSRVGALTNTLSRYTVQTMARALEQGHTVAMWIPGVVPLSSLAQWGASVAMQAVSRRRSEVRVPWLHSLAAAQEEDHEDQTDTEGEDTEEEEELETEENKFSEVAALPGPRGLLGGVAHTLQKTLQTTISAVTWAPAAVLGMAGRVLHLTPAPAVSSTKGRAMSLSDALKGVTDNVVDTVVHYVPLPRLSLMEPESEFRDIDNPPAEVERREAERRASGAPSAGPEPAPRLAQPRRSLRSAQSPGAPPGPGLEDEVATPAAPRPGFPAVPREKPKRRVSDSFFRPSVMEPILGRTHYSQLRKKS
notes: perilipin (product of PLIN1) in the pCMV3xFLAG vector; Same construct as m7, other host cells

stoichiometry N (seipin-Myc, Q96G97): 12
B2: seipin-Myc, Q96G97 1-398 (natural protein)
chain: T1 sequence (looked up)
